{"source": "patent US8529906B2", "about": "“Compositions for inducing immune responses” (Novartis Vaccines and Diagnostics, Inc., priority 2003, dated 2013)", "tested_on": "EG7 (EL4 transfected with ovalbumin) and EL4 target cells", "assay": "CTL activity (51Cr release cytotoxic cell assay) of spleen cells from mice immunized with OVA formulations", "assay_type": "in vivo", "conditions": "subcutaneous, dose 10 μg, boosted at 14 and 28 days; for CTL activity relative to the other OVA formulations: comparison in words; for CTL response: percent specific 51Cr release", "protocol": "Ovalbumin, PLG/OVA-entrapped particles, small OVA-protein particles (250 nm) and large OVA-protein particles (2500 nm), produced as described above, were administered subcutaneously to mice (dose=10 μg). The animals were boosted at 14 and 28 days. […] two weeks following the last immunization and CTL activity assayed as described in Doe et al., Proc. Natl. Acad. Sci. (1996) 93:8578-8583.\nLymphocyte cultures were prepared as follows. Spleen cells (sc) from immunized mice were cultured in 24-well dishes at 5×10^6 cells per well. Of those cells, 1×10^6 were sensitized with synthetic epitopic peptides from EG7 (EL4 transfected with ovalbumin) and EL4 proteins at a concentration of 10 μM for 1 hour at 37° C., washed, and cocultured with the remaining 4×10^6 untreated sc in 2 ml of culture medium [50% RPMI 1640 and 50% alpha-MEM (GIBCO)] supplemented with heat-inactivated fetal serum, 5×10^−5 M 2-mercaptoethanol, antibiotics, and 5% interleukin-2 (Rat T-Stim, Collaborative Biomedical Products, Bedford, Mass.). Cells were fed with 1 ml of fresh culture medium on days 3 and 5, and cytotoxicity was assayed on day 6.\nThe cytotoxic cell assay was conducted as follows. EG7 (EL4 transfected with ovalbumin) and EL4 target cells used in the ^51Cr release assays express class I but not class II MHC molecules. Approximately 1×10^6 target cells were incubated in 200 μl of medium containing 50 μCi (1 Ci=37 Gbq) of ^51Cr and synthetic Ovalbumin peptides (1 μm) for 60 min and washed three times. Effector (E) cells were cultured with 5×10^3 target (T) cells at various EST ratios in 200 μl of culture medium in 96-well round-bottom tissue culture plates for 4 hours. The average cpm from duplicate wells was used to calculate percent specific ^51Cr release.", "note": "Entries after “also recorded” stand apart in the source; their conditions may differ.", "data": [{"molecule": "small OVA-protein particles: Heat-stabilized ovalbumin protein particles formed by acetone coacervation, about 250 nm in diameter (protein, UniProt P01012 2-386, looked up, heat-stabilized particles, Heat-stabilized ovalbumin protein particles formed by acetone coacervation, about 250 nm in diameter) Ovalbumin: GSIGAASMEFCFDVFKELKVHHANENIFYCPIAIMSALAMVYLGAKDSTRTQINKVVRFDKLPGFGDSIEAQCGTSVNVHSSLRDILNQITKPNDVYSFSLASRLYAEERYPILPEYLQCVKELYRGGLEPINFQTAADQARELINSWVESQTNGIIRNVLQPSSVDSQTAMVLVNAIVFKGLWEKAFKDEDTQAMPFRVTEQESKPVQMMYQIGLFRVASMASEKMKILELPFASGTMSMLVLLPDEVSGLEQLESIINFEKLTEWTSSNVMEERKIKVYLPRMKMEEKYNLTSVLMAMGITDVFSSSANLSGISSAESLKISQAVHAAHAEINEAGREVVGSAEAGVDAASVSEEFRADHPFLFCIKHIATNAVLFFGRCVSP", "values": [{"measurement": "CTL activity relative to the other OVA formulations", "result": "activity comparable to the large OVA-protein particles; also recorded: more active, e.g., elicited a greater immune response than the PLG/OVA-entrapped particles and ovalbumin alone formulations"}, {"measurement": "CTL response", "result": "elicited a CTL response"}]}, {"molecule": "large OVA-protein particles: Heat-stabilized ovalbumin protein particles formed by acetone coacervation, about 2.5 μm in diameter (protein, UniProt P01012 2-386, looked up, heat-stabilized particles, Heat-stabilized ovalbumin protein particles formed by acetone coacervation, about 2.5 μm in diameter) Ovalbumin: GSIGAASMEFCFDVFKELKVHHANENIFYCPIAIMSALAMVYLGAKDSTRTQINKVVRFDKLPGFGDSIEAQCGTSVNVHSSLRDILNQITKPNDVYSFSLASRLYAEERYPILPEYLQCVKELYRGGLEPINFQTAADQARELINSWVESQTNGIIRNVLQPSSVDSQTAMVLVNAIVFKGLWEKAFKDEDTQAMPFRVTEQESKPVQMMYQIGLFRVASMASEKMKILELPFASGTMSMLVLLPDEVSGLEQLESIINFEKLTEWTSSNVMEERKIKVYLPRMKMEEKYNLTSVLMAMGITDVFSSSANLSGISSAESLKISQAVHAAHAEINEAGREVVGSAEAGVDAASVSEEFRADHPFLFCIKHIATNAVLFFGRCVSP", "values": [{"measurement": "CTL activity relative to the other OVA formulations", "result": "more active, e.g., elicited a greater immune response than the PLG/OVA-entrapped particles and ovalbumin alone formulations"}, {"measurement": "CTL response", "result": "elicited a CTL response"}]}]}
